Laboratory results from the nanobody polyreactivity screen of Harvey et al. (2022).

Experiment: yeast display, Sf9 membrane polyspecificity reagent, FACS + sequencing; frameworks hold sequencing errors
Outline: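 Galactose induction of a Saccharomyces cerevisiae BJ5465 synthetic nanobody display library ran 36–48 hours. The cells were then stained for 1 hour at 4 °C with 10% biotinylated, detergent-solubilized Sf9 membrane reagent, pulled down on streptavidin microbeads and FACS-sorted into low and high (top ~1%) gates on expression and reagent-binding fluorescence. Labels for polyreactivity follow the gate of origin.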

Row | Sequence | polyreactivity (PSR sort gate)
1 | QVQLVESGGGLVQAGGSLRISCAASGRIFGFNAMGWYRQAPGKERELVAAISRTSSSTYYADSVKGRFTISRDNAKNTVYLQMNSLKPEDTAVYYCATRYFTHGKYDYWGQGTQVTVSS | high polyreactivity
2 | QVQLVESGGGLVQAGGSLRISCAASGRIFNSYAMGWYRQAPGKERELVASISTSGGSTYYADSVKGRFTISRDNAKNTVYLQMNSLKPEDTAVYYCARRYYPKFWYTYDSWGQGTQVTVSS | low polyreactivity
3 | QVQLVESGGGLVQAGGSLRISCAASGRIFPFYAMGWYRQAPGKDRELVAAIRSGGGSTYYADSVKGRFTISRDNAKKTVYLQRNSLKPEDTAVYYCTARGRLGSAGRYNYWGQGTQVTVSS | high polyreactivity
4 | QVQLVESGGGLVQAGGSLRISCAASGRIFQYYSMGWYRQAPGKERELLAAMSSRGGSTTYADSVKGRFTISRDNAKNTVYLQMNRLKPEDTAVYYCASDWYYYPQYRQRYYYWGQGTQVTVSS | high polyreactivity
5 | QVQLVESGGGLVQAGGSLRISCAASGRIFTTYAMGWYRQAPGKEREFVADITLSGSSTYYADSVKGRFTISRDNAKNTVYLQMNSLKPEDTAVYYCAARTGRYYRRYDYWGQGTQETVSS | high polyreactivity
6 | QVQLVESGGGLVQAGGSLRISCAASGRIFVGYAMGWYRQAPGKERELVAAINRSGSSTYYADSVKGRFTISRDNAKNTVYLQMNSLKPEDTAVYYCNARSGNRYGPRYDYWGQGTQVTVSS | high polyreactivity
7 | QVQLVESGGGLVQAGGSLRISCAASGRIFVSNAMGWYRQAPGKDRELVAAISKSGARTSYADSVKGRFTISRDNAKNTVYLQMNSLKPEDTAVYYCAAPVRWSGGGEYPNYYWGQGTQVTVSS | high polyreactivity
8 | QVQLVESGGGLVQAGGSLRISCAASGRIFYSNTMGWYRQAPGKEREVVARIDTGGGSTYADSVKGRFTISRDNAKKSVYLEMHSLKPADTAVYYCYKKGRWRSWGSTSLVSMDYWGQGTQVTVSS | low polyreactivity
9 | QVQLVESGGGLVQAGGSLRISCAASGRILYRYAMGRYRQAPGKERELVAAITWRGGTTYYADSVKGRFTISRDNAKNTVYLQMNSLKPEDTAVYYCNADWWRTLESDYWGQGTQVTVSS | low polyreactivity
10 | QVQLVESGGGLVQAGGSLRISCAASGRTFECYAMGWSRQAPGKERELVAAISSGGSTYYADSVKGRFTISRDNAKNTVYLQMNSLKPEDTAVYYCNVLSQQRTARYDYWGQGTQVTVSS | low polyreactivity
11 | QVQLVESGGGLVQAGGSLRISCAASGRTFPGNAMGCYRQAPGKERELVAAISYSGGRTYYADSVKGRFTISRDNAKNTVYLQMNSLNPEDTAVYYCNRTPYSDYVFAYDYWGQGTQVTVSS | high polyreactivity
12 | QVQLVESGGGLVQAGGSLRISCAASGRTFQFNVMGWYRQAPGKERELVASIRSGGSTNYADSVKGRFTISRDNAKNTVYLQMNSLKPEDTAVYYCAARVASPYYRYDYWGQGTQVTVSS | low polyreactivity
13 | QVQLVESGGGLVQAGGSLRISCAASGRTFSNYAMGWYRQAPGKERELVAAISGSGGSTRYADSVKGRFTISRDNANITVYLQMNSLKPEDTAVYYCAARGAGPLHNHYSWGQGTQVTVSS | high polyreactivity
14 | QVQLVESGGGLVQAGGSLRISCAASGRTFYRNAMGWNSKAPGKERELVAAIRRSDGSTYYADSVKGRFTISRDNAKNTVYLQMNSLKPEDTAVYYCAAGQGSRNLYYYWGQGTQVTVSS | high polyreactivity
15 | QVQLVESGGGLVQAGGSLRISCAASGRTIDSYAMGWYRQAPGKERELVAAISWGGGSTYYADSVKGRFTISRDNAKNTVYLQMNSLKPEDTAVYYCAARWNYTEFDYWGQGTQVTVSS | low polyreactivity
16 | QVQLVESGGGLVQAGGSLRISCAASGRTLFGYAMGWYRQAPGKERELVAAITYGATSTYADSVKGRFTISRDNAKNTVYLQMNSLKPEDTAVYYCNAYTPTDGFDYWGQGTQVTVSS | low polyreactivity
17 | QVQLVESGGGLVQAGGSLRISCAASGRTLGYNAMGWYRQAPGKERELVAAISWSGGSTYYADSVKGRFTISRDNAKNTVYLQMNSLNPEDTAVYYCAARNNRYPLYNYWGQGTQVTVSS | low polyreactivity
18 | QVQLVESGGGLVQAGGSLRISCAASGRTLTSNAMGWYRQAPGKERELVASITGSSSNTYYADSVKGRFTISRDNAKNTVYLQMNSLKPEDTAVSYCAAEVGFPWWRLDEYWGQGTQVTVSS | low polyreactivity
19 | QVQLVESGGGLVQAGGSLRISCAASGRTSHAYAMGWYRQAPGKERELVAAITRVTSTYYADSVKGRFTISRDNAKNTVYLQMNSLKPEDTAVYYCAAGKGYYRSDYWGQGTQVTVSS | low polyreactivity
20 | QVQLVESGGGLVQAGGSLRISCAASGSIFRGNAMGWYRQAHGKERELVAAITRGVSTYYADSVKGRFTISRDNAKNTVYLQMNSLKPEDTAVYYCAKPYWWGYYSWGQGSQVTVSS | high polyreactivity
21 | QVQLVESGGGLVQAGGSLRISCAASGSIFRGYGMGWDRQAPGKERELVAAINYSGGSTYYADSVKGRYTISRDNAKNTVYLQMNSLKPEDTAVYYCNKVYYRQRGEYYYWGQGTQVTVSS | high polyreactivity
22 | QVQLVESGGGLVQAGGSLRISCAASGSIFTINAMGWYRQAPGKERELVARITSVDSTNYADSVKGRFTISRDNAKNNVHLQMNSLKPEDTAVYYCNATFGYPFVDYDDYWGQGTQVTVSS | low polyreactivity

Row | Sequence | polyreactivity (PSR sort gate)
23 | QVQLVESGGGLVQAGGSLRISCAASGSIFTPNAMGWYRQAPGKERELVAAISSSSDRTYYADSVKGRFTISRDNAKNTVYLQMNSLKPEDTAVYYCNAYYRYGIQFDYWGQGTQVTVSS | high polyreactivity
24 | QVQLVESGGGLVQAGGSLRISCAASGSIFTRYAMGWYRQAPGKERELVAAIRTSGGSTYYADSVKARFTISRDNAKNTVYFQMNSLKPEDTAVYYCARRYYKSNFYYWGQGTLVTVSS | high polyreactivity
25 | QVQLVESGGGLVQAGGSLRISCAASGSIFYVYAMGWYRQAPGKERELVATISTGGSTYYADSVKGRFTISRDNAKNTVYLQMNSLKPEDTAVYYCNAQFTPRYWGGYDSWGQGTQVTVSS | low polyreactivity
26 | QVQLVESGGGLVQAGGSLRISCAASGSILFGNAMGWYRQAPGKERELVAAITVSGGSTYYADSVKGRFTISRDNAKNTVYLQMNSLKPEDTAVYYCAAVSLFRDSQFDYWGQGTQVTVSS | low polyreactivity
27 | QVQLVESGGGLVQAGGSLRISCAASGSTFASTALGRYRLAAGKEMELVASISGSGGSTFYADSVKGRFTISRDNAKNTVYLQMNSLKPEDTEVYYCAAYKEPYYEEYGYGGQGTQVTVSS | low polyreactivity
28 | QVQLVESGGGLVQAGGSLRISCAASGSTFFLYAMGWYRQAPGKERELVAAISTTGGSTNYADSVKGRFTISRDNAKYTFELQINSLKPEDTAVYYCAAGPSAQSIYDHWGQGTQVTVSS | low polyreactivity
29 | QVQLVESGGGLVQAGGSLRISCAASGSTFKIYAMGWYRQAPGKERELVAAITGGGSSTYYADSVKGRFTISRDNSKNTVYLQMNSLKPEDTAVYYCAADLSGADSTGDYYYWGQGTQVTVSS | low polyreactivity
30 | QVQLVESGGGLVQAGGSLRISCAASGSTFLINAMGWYRQAPGKERELVAAIRYSGGRTYYADSVKGRFTISRDNAKNTVYLQMNSLKPEDTAVYYCNARPYRSQIGVHYDYWGQGTQVTVSS | high polyreactivity
31 | QVQLVESGGGLVQAGGSLRISCAASGSTFLYYAMGWYRQAPGKERELVAAISWDGGNTYYADSVKGRFTISRDNAKNTVYLQMNSLKPEDTAVYYFAAKHYGSYLYWFGSDYWGQGTQVTVSS | high polyreactivity
32 | QVQLVESGGGLVQAGGSLRISCAASGSTFSDYDMVWYRQAPGKERELVAAISKRGGSTDYADSVKGRFTFSRDNAKITVYLQMNSLKPEDTAVYYCAKDGTHGYDYWGQGTQVTVSS | low polyreactivity
33 | QVQLVESGGGLVQAGGSLRISCAASGSTFVSYAMGWYRQAPGKERELVATISWRGGSTYYADSVKGRFTISRDNAKNRDYLHMNSLNPEDTAVYYCAADLWHSQYYYGYEYWGQGSQVTVSS | low polyreactivity
34 | QVQLVESGGGLVQAGGSLRISCAASGSTIGVNAMGLYRQAPGKEMELVAAISVSGGRTYYADSVKGRFTISRDYAKNTVYLQMNSLKPEDTAVYYCAATTYIWPYDYWGQGTQVNVSS | low polyreactivity
35 | QVQLVESGGGLVQAGGSLRISCAASGSTLRSNAMGWYRQAPGKERELVASISSGGSTSYADSVKGRFPISRDNAKNTVYFQMNSLKPEDTAVLYCAADGTLTLYRYILDYWGQGTQVTVSS | low polyreactivity
36 | QVQLVESGGGLVQAGGSLRISCAASGSTSLYYAMGWYSQAPGKEREFVAANTWSGGSTYYADSVKGRFTISRDNAKNSVYLQMNSLQPVDTAVDYWAARSYGYSAGYYWRQGTQVTVSS | high polyreactivity
37 | QVQLVESGGGLVQAGGSLRISCAASGYIFKYAMGWYRQAPGKERELVAAISRRGGSTYYADSVKGRFTISRDNAKNTVYLQMNSLKPEDTEVYYCAARLPGYYGIGDYWGQGTQVTVSS | high polyreactivity
38 | QVQLVESGGGLVQAGGSLRISCAATGRIFGPYTMGWYRQAPGKERELVARISRRGGSTYYADSVKGRFTISRDNAKNTVYFQMNSLKPEDTAVYYCARSQAVYDGWFAKFGYWGQGTQVTVSS | high polyreactivity
39 | QVQLVESGGGLVQAGGSLRISCAAYGTIFSDYAMGWYKQAPGKERELVAAISSGGNTNYADSVKGRFTISRDNAKNTVYLQMNSLKPEDTAVYYCAAVYNTTYTLLPEYSDVKYYYWGQGTQVTVSS | low polyreactivity
40 | QVQLVESGGGLVQAGGSLRISCADSGSIFRRYAMGWYRQAPGKERELVAAISIGGGSTYYADSVKGRFTISRDNAKNTVYLLMTSLKPEDTAVYYCNKVEYDGAYDYWGQGTQVTVSS | low polyreactivity
41 | QVQLVESGGGLVQAGGSLRISCAPSGIIFGYNVMGRYRQAPGKERELVAAISGSGASTYYADSVKGRFTISRDNAKNTVYLQMNSLKPEDTAVYYCARYRGYWGRYYGVDYGYWGQGTQVTVSS | high polyreactivity
42 | QVQLVESGGGLVQAGGSLRISCAPSGSTFPHNAMGWYRQAPGKERELVAAISSIGVRTYYADSVKGRFTISRDNAKNTVYLQMNSLKPEDTAVYYCAAEYDGPYTWVEYYYHYGYWGQGTQVTVSS | high polyreactivity
43 | QVQLVESGGGLVQAGGSLRISCDASGSTLRGYSIGWYRQAPGKERELVAAISRRGSGTYYADSVKGRFTISRDNAKNTVYLQMNSLKPEDTAVYYCNAVNGDYEFGYWGQGTQVTVSS | high polyreactivity
